# Laboratory results reported in article PMC4684078.
# Target: mCherry-p62 delta PB1 (recombinant) (human)
# Assay: SEC-MALS; size exclusion chromatography with static light scattering (Superdex 200 10/300, MiniDawn Treos); 25 mM HEPES pH 7.5, 500 mM NaCl, 1 mM DTT
substance,measurement,value
mCherry-p62 delta PB1 (recombinant) (domain or fragment),stoichiometry N,3
